Data reported in article PMC5120336, “The N-terminal loop of IRAK-4 death domain regulates ordered assembly of the Myddosome signalling scaffold” (Scientific Reports, 2016).

B1: MyD88 containing the death domain and intermediate domain (aa 1 to 158) (domain or fragment, human, UniProt Q99836 1-158, looked up)
chain: MAAGGPGAGSAAPVSSTSSLPLAALNMRVRRRLSLFLNVRTQVAADWTALAEEMDFEYLEIRQLETQADPTGRLLDAWQGRPGASVGRLLELLTKLGRDDVLLELGPSIEEDCQKYILKQQQEEAEKPLQVAAVDSSVPRTAELAGITTLDDPLGHMP
notes: MyD88, human, death domain and intermediate domain, aa 1 to 158; Alone it elutes as a dimer (35 kDa) on size exclusion; also called MyD88 DD; MyD88 death domain; source: E. coli BL21 Star (DE3), purified (GSTrap with on-column Tev cleavage, HisTrap, Superdex 75); not shown: 6xHis-GST, N-terminal, cleaved
B2: IRAK-4 kinase dead mutant (KK213AA) (LUMIER construct) (natural protein, human, UniProt Q9NWZ3 1-460, looked up)
chain: MNKPITPSTYVRCLNVGLIRKLSDFIDPQEGWKKLAVAIKKPSGDDRYNQFHIRRFEALLQTGKSPTSELLFDWGTTNCTVGDLVDLLIQNEFFAPASLLLPDAVPKTANTLPSKEAITVQQKQMPFCDKDRTLMTPVQNLEQSYMPPDSSSPENKSLEVSDTRFHSFSFYELKNVTNNFDERPISVGGNKMGEGGFGVVYKGYVNNTTVAVAALAAMVDITTEELKQQFDQEIKVMAKCQHENLVELLGFSSDGDDLCLVYVYMPNGSLLDRLSCLDGTPPLSWHMRCKIAQGAANGINFLHENHHIHRDIKSANILLDEAFTAKISDFGLARASEKFAQTVMTSRIVGTTAYMAPEALRGEITPKSDIYSFGVVLLEIITGLPAVDEHREPQLLLDIKEEIEDEEKTIEDYIDKKMNDADSTSVEAMYSVASQCLHEKKNKRPDIKKVQQLLQEMTAS
notes: IRAK-4, human; also called kinase dead IRAK-4; KD

Legend:
[1] = molecular target: the molecule itself; experiment: SEC; Myddosome assembly assay: death domains alone or mixed 1:1, concentrated to 0.5 mg.ml^-1, calibrated TSKgel SuperSW3000 analytical size exclusion column, 0.3 ml.min^-1, peaks analysed by reducing SDS-PAGE
[2] = molecular target: T1, MyD88 (LUMIER construct) (human, UniProt Q99836 1-296); experiment: LUMIER; affinity purification of Protein A tagged proteins on magnetic IgG beads (Dynabeads M-280, sheep anti-rabbit IgG); co-purified protein detected by Renilla luciferase activity; conditions: partners not purified
T1 construct: MyD88, human

| Binder | stoichiometry N [1] | fold binding against wild-type IRAK-4 [2] |
| --- | --- | --- |
| B1 | 2 | – |
| B2 | – | ~5 fold |
